Publication PMC6265731

Assays:
Assay in all cases: affinity purification with mass spectrometry
[1] = target: WT PLRV (assembled virions and/or soluble structural proteins CP and RTP, as captured by the α-PLRV antibody) (Potato leafroll virus)
[2] = target: non-incorporated (soluble) form of the PLRV readthrough protein expressed by the ΔCP mutant (Potato leafroll virus)
[3] = target: ΔRTC PLRV (virions and soluble structural proteins of the mutant whose RTD lacks the last 218 C-terminal residues) (Potato leafroll virus)

Molecule: Potato leafroll virus P3a protein (from UniProt P0DTK2 1-45) (natural protein)
- fold decrease of P3a (normalised to CP) in ΔP17 APs against WT APs [1]: 3.4 fold

B1: Potato leafroll virus P17 movement protein (natural protein)
chain: MSMVVYNNQECEEGNPFAGALTEFSQWLWSRPLGNPGAEDAEEEAIAAQEELEFPEDEAQARHSCLQRTTSWATPKEVSPSGRVYQTVRHSRMEYSRPTMSIRSQASYFSSSARPLPPPPVPSLMSWTPIAKYHPSSPTSTSSKLRRAAPKLIKRG
- fold increase of P17 (normalised to CP) in ΔCP APs against WT APs [2]: 1.8 fold

B2: Potato leafroll virus P1 polyprotein (natural protein)
chain: KEAGFLHPAFNFRGTSTMSASSGDYSAAPTPLYKSWALPSSLNLTTQPPPPLTDRSYYELVQALTSKMRLDCQTVGDMTWRHLSEMLFASWNSVKEVSLKAASVTLWAIINIWFGLYWTLARLITLFLWTFSIEALCLILLGCITSLIYKGALSLSEHLPVFLFMSPLKIIWRAAFSKRNYKNERAVEGYKGFSVPQKPPKSAVIELQHENGSHLGYANCIRLYSGENALVTAEHCLEGAFATSLKTGNRIPMSTFFPIFKSARNDISILVGPPNWEGLLSVKGAHFITADKIGKGPASFYTLEKGEWMCHSATIDGAHHQFVSVLCNTGPGYSGTGFWSSKNLLGVLKGFPLEEECNYNVMSVIPSIPGITSPNYVFESTAVKGRVFSDEAVKELEREASEAVKKLARFKSLTDKNWADDYDSDEDYGLEREAATNAPAEKTAQTNSAEKTAPSTSAEKTALTNKPLNGQAAPSAKTNGNSDIPDAATSAPPMDKMVEQIITAMVGRINLSEIEEKIVSRVSQKALQKPKQKKRGRRGGKNKQNSLPPTSTQSTSGAPKKEAAPQASGSAGTSRATTTPAPEAKPSGGKNSAKFTPSWRIKQQDSAGQKPDLKLNSKA
- fold increase of P1 (normalised to CP) in ΔRTC APs against WT APs [3]: 1.8 fold
